{"source": "paper PMC2702170", "about": "“DNA Structure Modulates the Oligomerization Properties of the AAV Initiator Protein Rep68” (PLoS Pathogens, 2009)", "binders": {"B1": {"name": "Rep68 (adeno-associated virus 2), non-tagged (natural protein)", "chain": "MPGFYEIVIKVPSDLDGHLPGISDSFVNWVAEKEWELPPDSDMDLNLIEQAPLTVAEKLQRDFLTEWRRVSKAPEALFFVQFEKGESYFHMHVLVETTGVKSMVLGRFLSQIREKLIQRIYRGIEPTLPNWFAVTKTRNGAGGGNKVVDECYIPNYLLPKTQPELQWAWTNMEQYLSACLNLTERKRLVAQHLTHVSQTQEQNKENQNPNSDAPVIRSKTSARYMELVGWLVDKGITSEKQWIQEDQASYISFNAASNSRSQIKAALDNAGKIMSLTKTAPDYLVGQQPVEDISSNRIYKILELNGYDPQYAASVFLGWATKKFGKRNTIWLFGPATTGKTNIAEAIAHTVPFYGCVNWTNENFPFNDCVDKMVIWWEEGKMTAKVVESAKAILGGSKVRVDQKCKSSAQIDPTPVIVTSNTNMCAVIDGNSTTFEHQQPLQDRMFKFELTRRLDHDFGKVTKQEVKDFFRWAKDHVVEVEHEFYVKKGGAKKRPAPSDADISEPKRVRESVAQPSTSDAEASINYADRLARGHSL", "notes": "Rep68 protein of adeno-associated virus 2 (AAV2), GenBank AAC03774; Expressed as His6-PreScission site-Rep68; the His-PP tag was removed with PreScission protease; also called untagged Rep68; non-tagged Rep68; source: E. coli BL21(DE3)pLysS, purified (Ni column, PreScission cleavage, second Ni column, Superdex 200 gel filtration); not shown: His6, N-terminal, cleaved"}, "B2": {"name": "His-Rep68 K406A (natural protein)", "chain": "B1 chain with K406A", "notes": "Rep68 protein of adeno-associated virus 2 (AAV2), GenBank AAC03774, with K406A; source: E. coli BL21(DE3)pLysS, purified (Ni column, Superdex 200 gel filtration); not shown: His6, N-terminal, kept"}, "B3": {"name": "His-Rep68 K404A (natural protein)", "chain": "B1 chain with K404A", "notes": "Rep68 protein of adeno-associated virus 2 (AAV2), GenBank AAC03774, with K404A; source: E. coli BL21(DE3)pLysS, purified (Ni column, Superdex 200 gel filtration); not shown: His6, N-terminal, kept"}, "B4": {"name": "RBS dsDNA (JM-2/JM-20) (dsDNA)", "DNA 1": "GCCTCAGTGAGCGAGCGAGCGCGCAGAG", "DNA 2": "CTCTGCGCGCTCGCTCGCTCACTGAGGC"}}, "key": {"[1]": {"target": "His-Rep68 WT (Adeno-associated virus 2 (AAV2), UniProt P03132 1-536)", "assay": "size exclusion chromatography; somewhat less efficient than untagged; Anisotropy: 20 mM HEPES pH 7.5, 50 mM NaCl, 5 nM DNA, 20 C, 15 min. SEC: 25 mM Tris-HCl pH 8.0 (4 C), 200 mM NaCl, 5% glycerol, 1 mM TCEP, 16.6 uM protein, 30 min on ice", "conditions": "protein: recombinant; tags: N-terminal His6-PreScission site; chain copies: 16"}, "[2]": {"target": "T1, Rep40 (Adeno-associated virus 2 (AAV2), UniProt Q89269 1-312)", "T1 sequence": "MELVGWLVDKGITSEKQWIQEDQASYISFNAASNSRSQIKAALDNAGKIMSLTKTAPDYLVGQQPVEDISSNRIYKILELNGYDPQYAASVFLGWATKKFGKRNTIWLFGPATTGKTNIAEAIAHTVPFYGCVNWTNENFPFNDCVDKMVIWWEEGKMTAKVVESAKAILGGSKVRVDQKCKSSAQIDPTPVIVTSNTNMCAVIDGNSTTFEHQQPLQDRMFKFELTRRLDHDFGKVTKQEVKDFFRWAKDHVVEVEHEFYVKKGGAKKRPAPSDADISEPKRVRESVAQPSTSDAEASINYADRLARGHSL", "assay": "size exclusion chromatography; 2.8 or 16.6 uM ssDNA, 200 mM NaCl; ssDNA elutes free; Anisotropy: 20 mM HEPES pH 7.5, 50 mM NaCl, 5 nM DNA, 20 C, 15 min. SEC: 25 mM Tris-HCl pH 8.0 (4 C), 200 mM NaCl, 5% glycerol, 1 mM TCEP, 16.6 uM protein, 30 min on ice", "conditions": "protein: recombinant"}, "[3]": {"target": "T2, OID (OID-N208) (Adeno-associated virus 2 (AAV2), UniProt P03132 1-208)", "assay": "size exclusion chromatography; 2.8 or 16.6 uM ssDNA, 200 mM NaCl; ssDNA elutes free; Anisotropy: 20 mM HEPES pH 7.5, 50 mM NaCl, 5 nM DNA, 20 C, 15 min. SEC: 25 mM Tris-HCl pH 8.0 (4 C), 200 mM NaCl, 5% glycerol, 1 mM TCEP, 16.6 uM protein, 30 min on ice", "conditions": "protein: recombinant; chain copies: 2"}, "[4]": {"target": "T3, Rep68 (Adeno-associated virus 2 (AAV2), UniProt P03132 1-536)", "assay": "size exclusion chromatography; sedimentation velocity; SAXS; cryo-EM; no nucleotide; apparent ~2.3 MDa; Anisotropy: 20 mM HEPES pH 7.5, 50 mM NaCl, 5 nM DNA, 20 C, 15 min. SEC: 25 mM Tris-HCl pH 8.0 (4 C), 200 mM NaCl, 5% glycerol, 1 mM TCEP, 16.6 uM protein, 30 min on ice", "conditions": "protein: recombinant; tags: untagged (His6-PreScission tag removed); chain copies: 16"}, "[5]": {"target": "T3, Rep68", "assay": "fluorescence anisotropy; Anisotropy: 20 mM HEPES pH 7.5, 50 mM NaCl, 5 nM DNA, 20 C, 15 min. SEC: 25 mM Tris-HCl pH 8.0 (4 C), 200 mM NaCl, 5% glycerol, 1 mM TCEP, 16.6 uM protein, 30 min on ice", "conditions": "protein: recombinant; tags: untagged (His6-PreScission tag removed); chain copies: 16; label: 5' 6-carboxyfluorescein"}, "[6]": {"target": "T1, Rep40", "assay": "fluorescence anisotropy; Anisotropy: 20 mM HEPES pH 7.5, 50 mM NaCl, 5 nM DNA, 20 C, 15 min. SEC: 25 mM Tris-HCl pH 8.0 (4 C), 200 mM NaCl, 5% glycerol, 1 mM TCEP, 16.6 uM protein, 30 min on ice", "conditions": "protein: recombinant; label: 5' 6-carboxyfluorescein"}, "[7]": {"target": "T2, OID (OID-N208)", "assay": "fluorescence anisotropy; Anisotropy: 20 mM HEPES pH 7.5, 50 mM NaCl, 5 nM DNA, 20 C, 15 min. SEC: 25 mM Tris-HCl pH 8.0 (4 C), 200 mM NaCl, 5% glycerol, 1 mM TCEP, 16.6 uM protein, 30 min on ice", "conditions": "protein: recombinant; chain copies: 2; label: 5' 6-carboxyfluorescein"}, "[8]": {"target": "the molecule itself", "assay": "cryo-EM structure; Rep68-heteroduplex complex purified by size-exclusion chromatography; 2D classification of a limited number of end views"}, "[9]": {"target": "the molecule itself", "assay": "cryo-EM structure; Rep68-ssDNA complex purified on Superose 6, about 0.4 mg/ml; 0.05% n-octyl β-D-glucopyranoside for side views; reference-free 2D alignment and classification only (no 3D map)"}, "[10]": {"target": "the molecule itself", "assay": "AUC; with RBS dsDNA; sedimentation velocity (Rep68 1 mg/ml, 2.8 µM RBS dsDNA, buffer A, 45,000 rpm, 20°C) and sedimentation equilibrium (complex purified by gel filtration, OD260 0.25 or 0.75; 4,000, 5,000 and 7,000 rpm, 20°C)"}, "[11]": {"target": "the molecule itself", "assay": "SEC; Superose 6 10/300 GL, buffer A (25 mM Tris-HCl pH 8.0, 200 mM NaCl, 5% glycerol, 1 mM TCEP); Rep protein 16.6 µM incubated with 2.8 µM ssDNA (polydT25) 30 min on ice; also with 1 mM ATP, ATP/CaCl2 or ATP/MgCl2 added (same complex)"}, "[12]": {"target": "T2, OID (OID-N208)", "assay": "size exclusion chromatography; 2.8 or 16.6 uM RBS dsDNA, 200 mM NaCl; Anisotropy: 20 mM HEPES pH 7.5, 50 mM NaCl, 5 nM DNA, 20 C, 15 min. SEC: 25 mM Tris-HCl pH 8.0 (4 C), 200 mM NaCl, 5% glycerol, 1 mM TCEP, 16.6 uM protein, 30 min on ice", "conditions": "protein: recombinant; chain copies: 2; blunt"}, "[13]": {"target": "T3, Rep68", "assay": "size exclusion chromatography; sedimentation velocity; SAXS; apparent ~578 kDa; five Rep68 subunits; Anisotropy: 20 mM HEPES pH 7.5, 50 mM NaCl, 5 nM DNA, 20 C, 15 min. SEC: 25 mM Tris-HCl pH 8.0 (4 C), 200 mM NaCl, 5% glycerol, 1 mM TCEP, 16.6 uM protein, 30 min on ice", "conditions": "protein: recombinant; tags: untagged (His6-PreScission tag removed); chain copies: 5; blunt"}}, "note": "Substitutions are numbered along the chain they refer to. Names and notes keep the numbering of the source."}
{"binder": "TTTTTTTTTTTTTTTTTTTTTTTTT (ssDNA)", "note": "[poly-dT25 ssDNA]", "values": [{"measurement": "binding result", "setting": "[1]", "value": "binds"}, {"measurement": "binding result", "setting": "[2]", "value": "no binding"}, {"measurement": "binding result", "setting": "[3]", "value": "no binding"}, {"measurement": "binding result", "setting": "[4]", "value": "binds"}]}
{"binder": "TTTTTTTTTTTTTTTTTTTTTTTTTTTTTTTTTTTTTT (ssDNA)", "note": "[poly-dT38 5'-FAM]", "values": [{"measurement": "Kd", "setting": "[5]", "value": 23, "unit": "nM"}, {"measurement": "Kd", "setting": "[6]", "value": "~3500", "unit": "nM"}, {"measurement": "Kd", "setting": "[7]", "value": "~130", "unit": "nM"}]}
{"binder": "B1", "values": [{"measurement": "stoichiometry N", "setting": "[8]", "value": 8}, {"measurement": "stoichiometry N", "setting": "[9]", "value": 16}, {"measurement": "stoichiometry N", "setting": "[10]", "value": 5}]}
{"binder": "B2", "values": [{"measurement": "binding result", "setting": "[11]", "value": "binds"}]}
{"binder": "B3", "values": [{"measurement": "binding result", "setting": "[11]", "value": "binds"}]}
{"binder": "B4", "values": [{"measurement": "binding result", "setting": "[12]", "value": "binds"}, {"measurement": "binding result", "setting": "[13]", "value": "binds"}]}
